# Reference: IntAct's records for PubMed 29039417
# B1: BBSome complex member BBS5 (Homo sapiens), Q8N3I7 (parent)
# chain: MSVLDALWEDRDVRFDLSAQQMKTRPGEVLIDCLDSIEDTKGNNGDRGRLLVTNLRILWHSLALSRVNVSVGYNCILNITTRTANSKLRGQTEALYILTKCNSTRFEFIFTNLVPGSPRLFTSVMAVHRAYETSKMYRDFKLRSALIQNKQLRLLPQEHVYDKINGVWNLSSDQGNLGTFFITNVRIVWHANMNDSFNVSIPYLQIRSIKIRDSKFGLALVIESSQQSGGYVLGFKIDPVEKLQESVKEINSLHKVYSASPIFGVDYEMEEKPQPLEALTVEQIQDDVEIDSDGHTDAFVAYFADGNKQQDREPVFSEELGLAIEKLKDGFTLQGLWEVMS
# partner: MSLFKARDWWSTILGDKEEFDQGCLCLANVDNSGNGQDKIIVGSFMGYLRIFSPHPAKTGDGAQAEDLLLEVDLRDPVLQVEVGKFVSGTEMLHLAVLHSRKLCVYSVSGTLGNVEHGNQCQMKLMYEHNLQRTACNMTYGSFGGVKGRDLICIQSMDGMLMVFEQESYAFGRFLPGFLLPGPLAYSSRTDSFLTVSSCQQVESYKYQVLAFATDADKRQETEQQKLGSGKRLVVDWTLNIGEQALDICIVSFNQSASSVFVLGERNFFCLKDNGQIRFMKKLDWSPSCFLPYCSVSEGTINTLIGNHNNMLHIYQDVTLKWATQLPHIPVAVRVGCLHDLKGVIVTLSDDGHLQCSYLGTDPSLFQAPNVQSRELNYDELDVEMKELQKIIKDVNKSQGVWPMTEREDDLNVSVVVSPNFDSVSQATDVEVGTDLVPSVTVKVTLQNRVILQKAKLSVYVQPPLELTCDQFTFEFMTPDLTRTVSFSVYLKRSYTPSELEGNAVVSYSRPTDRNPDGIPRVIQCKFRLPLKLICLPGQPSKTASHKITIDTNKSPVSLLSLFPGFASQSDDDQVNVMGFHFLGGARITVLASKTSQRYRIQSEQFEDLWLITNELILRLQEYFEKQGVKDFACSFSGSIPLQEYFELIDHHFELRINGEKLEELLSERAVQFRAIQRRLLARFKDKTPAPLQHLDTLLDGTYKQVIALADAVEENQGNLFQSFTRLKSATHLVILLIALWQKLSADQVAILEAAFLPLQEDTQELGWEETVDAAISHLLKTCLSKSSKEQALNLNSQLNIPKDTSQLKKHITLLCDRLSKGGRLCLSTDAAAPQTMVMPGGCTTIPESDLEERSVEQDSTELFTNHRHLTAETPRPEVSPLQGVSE
# Variants of: B1
# Settings: with pthb1_human BBS9, Q3SYG4
row,Variant,effect of a mutation on the interaction
1,MSVLDALWEDRDVRFDLSAQQMKTRPGEVLIDCLDSIEDTKGNNGDRGRLLVTNLRILWHSLALSRVNVSVGYNCILNITTRTANSKLRGQTEALYILTKCNSTRFEFIFTNLVPGSPRLFTSVMAVHRAYETSKMYRDFKLRSALIQNKQLRLLPQEHVYDKINGVWNLSSDQGNLGTFFITNVRIVWHANMNDSFNVSIPYLQIRSIKIRDSKFGLALVIESSQQSGGYVLGFKIDPVEKLQESVKEINSEHKVYSASPIFGVDYEMEEKPQPLEALTVEQIQDDVEIDSDGHTDAFVAYFADGNKQQDREPVFSEELGLAIEKLKDGFTLQGLWEVMS [L253E],with no effect
2,MSVLDALWEDRDVRFDLSAQQMKTRPGEVLIDCLDSIEDTKGNNGDRGRLLVTNLRILWHSLALSRVNVSVGYNCILNITTRTANSKLRGQTEALYILTKCNSTRFEFIFTNLVPGSPRLFTSVMAVHRAYETSKMYRDFKLRSALIQNKQLRLLPQEHVYDKINGVWNLSSDQGNLGTFFITNVRIVWHANMNDSFNVSIPYLQIRSIKIRDSKFGLALVIESSQQSGGYVLGFKIDPVEKLQESVKEINSKHKVYSASPIFGVDYEMEEKPQPLEALTVEQIQDDVEIDSDGHTDAFVAYFADGNKQQDREPVFSEELGLAIEKLKDGFTLQGLWEVMS [L253K],with no effect
3,MSVLDALWEDRDVRFDLSAQQMKTRPGEVLIDCLDSIEDTKGNNGDRGRLLVTNLRILWHSLALSRVNVSVGYNCILNITTRTANSKLRGQTEALYILTKCNSTRFEFIFTNLVPGSPRLFTSVMAVHRAYETSKMYRDFKLRSALIQNKQLRLLPQEHVYDKINGVWNLSSDQGNLGTFFITNVRIVWHANMNDSFNVSIPYLQIRSIKIRDSKFGLALVIESSQQSGGYVLGFKIDPVEKLQESVKEINSAHKVYSASPIFGVDYEMEEKPQPLEALTVEQIQDDVEIDSDGHTDAFVAYFADGNKQQDREPVFSEELGLAIEKLKDGFTLQGLWEVMS [L253A],with no effect
4,MSVLDALWEDRDVRFDLSAQQMKTRPGEVLIDCLDSIEDTKGNNGDRGRLLVTNLRILWHSLALSRVNVSVGYNCILNITTRTANSKLRGQTEALYILTKCNSTRFEFIFTNLVPGSPRLFTSVMAVHRAYETSKMYRDFKLRSALIQNKQLRLLPQEHVYDKINGVWNLSSDQGNLGTFFITNVRIVWHANMNDSFNVSIPYLQIRSIKIRDSKFGLALVIESSQQSGGYVLGFKIDPVEKLQESVKEENSLHKVYSASPIFGVDYEMEEKPQPLEALTVEQIQDDVEIDSDGHTDAFVAYFADGNKQQDREPVFSEELGLAIEKLKDGFTLQGLWEVMS [I250E],with no effect
5,MSVLDALWEDRDVRFDLSAQQMKTRPGEVLIDCLDSIEDTKGNNGDRGRLLVTNLRILWHSLALSRVNVSVGYNCILNITTRTANSKLRGQTEALYILTKCNSTRFEFIFTNLVPGSPRLFTSVMAVHRAYETSKMYRDFKLRSALIQNKQLRLLPQEHVYDKINGVWNLSSDQGNLGTFFITNVRIVWHANMNDSFNVSIPYLQIRSIKIRDSKFGLALVIESSQQSGGYVLGFKIDPVEKLQESVKEKNSLHKVYSASPIFGVDYEMEEKPQPLEALTVEQIQDDVEIDSDGHTDAFVAYFADGNKQQDREPVFSEELGLAIEKLKDGFTLQGLWEVMS [I250K],with no effect
6,MSVLDALWEDRDVRFDLSAQQMKTRPGEVLIDCLDSIEDTKGNNGDRGRLLVTNLRILWHSLALSRVNVSVGYNCILNITTRTANSKLRGQTEALYILTKCNSTRFEFIFTNLVPGSPRLFTSVMAVHRAYETSKMYRDFKLRSALIQNKQLRLLPQEHVYDKINGVWNLSSDQGNLGTFFITNVRIVWHANMNDSFNVSIPYLQIRSIKIRDSKFGLALVIESSQQSGGYVLGFKIDPVEKLQESVKEANSLHKVYSASPIFGVDYEMEEKPQPLEALTVEQIQDDVEIDSDGHTDAFVAYFADGNKQQDREPVFSEELGLAIEKLKDGFTLQGLWEVMS [I250A],with no effect
7,MSVLDALWEDRDVRFDLSAQQMKTRPGEVLIDCLDSIEDTKGNNGDRGRLLVTNLRILWHSLALSRVNVSVGYNCILNITTRTANSKLRGQTEALYILTKCNSTRFEFIFTNLVPGSPRLFTSVMAVHRAYETSKMYRDFKLRSALIQNKQLRLLPQEHVYDKINGVWNLSSDQGNLGTFFITNVRIVWHANMNDSFNVSIPYLQIRSIKIRDSKFGLALVIESSQQSGGYVLGFKIDPVEKLQESKKEINSLHKVYSASPIFGVDYEMEEKPQPLEALTVEQIQDDVEIDSDGHTDAFVAYFADGNKQQDREPVFSEELGLAIEKLKDGFTLQGLWEVMS [V247K],with no effect
8,MSVLDALWEDRDVRFDLSAQQMKTRPGEVLIDCLDSIEDTKGNNGDRGRLLVTNLRILWHSLALSRVNVSVGYNCILNITTRTANSKLRGQTEALYILTKCNSTRFEFIFTNLVPGSPRLFTSVMAVHRAYETSKMYRDFKLRSALIQNKQLRLLPQEHVYDKINGVWNLSSDQGNLGTFFITNVRIVWHANMNDSFNVSIPYLQIRSIKIRDSKFGLALVIESSQQSGGYVLGFKIDPVEKLQESVAEINSLHKVYSASPIFGVDYEMEEKPQPLEALTVEQIQDDVEIDSDGHTDAFVAYFADGNKQQDREPVFSEELGLAIEKLKDGFTLQGLWEVMS [K248A],with no effect
9,MSVLDALWEDRDVRFDLSAQQMKTRPGEVLIDCLDSIEDTKGNNGDRGRLLVTNLRILWHSLALSRVNVSVGYNCILNITTRTANSKLRGQTEALYILTKCNSTRFEFIFTNLVPGSPRLFTSVMAVHRAYETSKMYRDFKLRSALIQNKQLRLLPQEHVYDKINGVWNLSSDQGNLGTFFITNVRIVWHANMNDSFNVSIPYLQIRSIKIRDSKFGLALVIESSQQSGGYVLGFKIDPVEKLQESVEEINSLHKVYSASPIFGVDYEMEEKPQPLEALTVEQIQDDVEIDSDGHTDAFVAYFADGNKQQDREPVFSEELGLAIEKLKDGFTLQGLWEVMS [K248E],with no effect
10,MSVLDALWEDRDVRFDLSAQQMKTRPGEVLIDCLDSIEDTKGNNGDRGRLLVTNLRILWHSLALSRVNVSVGYNCILNITTRTANSKLRGQTEALYILTKCNSTRFEFIFTNLVPGSPRLFTSVMAVHRAYETSKMYRDFKLRSALIQNKQLRLLPQEHVYDKINGVWNLSSDQGNLGTFFITNVRIVWHANMNDSFNVSIPYLQIRSIKIRDSKFGLALVIESSQQSGGYVLGFKIDPVEKLQESVKEINELHKVYSASPIFGVDYEMEEKPQPLEALTVEQIQDDVEIDSDGHTDAFVAYFADGNKQQDREPVFSEELGLAIEKLKDGFTLQGLWEVMS [S252E],with no effect
11,MSVLDALWEDRDVRFDLSAQQMKTRPGEVLIDCLDSIEDTKGNNGDRGRLLVTNLRILWHSLALSRVNVSVGYNCILNITTRTANSKLRGQTEALYILTKCNSTRFEFIFTNLVPGSPRLFTSVMAVHRAYETSKMYRDFKLRSALIQNKQLRLLPQEHVYDKINGVWNLSSDQGNLGTFFITNVRIVWHANMNDSFNVSIPYLQIRSIKIRDSKFGLALVIESSQQSGGYVLGFKIDPVEKLQESVKEINALHKVYSASPIFGVDYEMEEKPQPLEALTVEQIQDDVEIDSDGHTDAFVAYFADGNKQQDREPVFSEELGLAIEKLKDGFTLQGLWEVMS [S252A],with no effect
12,MSVLDALWEDRDVRFDLSAQQMKTRPGEVLIDCLDSIEDTKGNNGDRGRLLVTNLRILWHSLALSRVNVSVGYNCILNITTRTANSKLRGQTEALYILTKCNSTRFEFIFTNLVPGSPRLFTSVMAVHRAYETSKMYRDFKLRSALIQNKQLRLLPQEHVYDKINGVWNLSSDQGNLGTFFITNVRIVWHANMNDSFNVSIPYLQIRSIKIRDSKFGLALVIESSQQSGGYVLGFKIDPVEKLQESVKEINKLHKVYSASPIFGVDYEMEEKPQPLEALTVEQIQDDVEIDSDGHTDAFVAYFADGNKQQDREPVFSEELGLAIEKLKDGFTLQGLWEVMS [S252K],with no effect
13,MSVLDALWEDRDVRFDLSAQQMKTRPGEVLIDCLDSIEDTKGNNGDRGRLLVTNLRILWHSLALSRVNVSVGYNCILNITTRTANSKLRGQTEALYILTKCNSTRFEFIFTNLVPGSPRLFTSVMAVHRAYETSKMYRDFKLRSALIQNKQLRLLPQEHVYDKINGVWNLSSDQGNLGTFFITNVRIVWHANMNDSFNVSIPYLQIRSIKIRDSKFGLALVIESSQQSGGYVLGFKIDPVEKLQESVKEIESLHKVYSASPIFGVDYEMEEKPQPLEALTVEQIQDDVEIDSDGHTDAFVAYFADGNKQQDREPVFSEELGLAIEKLKDGFTLQGLWEVMS [N251E],with no effect
14,MSVLDALWEDRDVRFDLSAQQMKTRPGEVLIDCLDSIEDTKGNNGDRGRLLVTNLRILWHSLALSRVNVSVGYNCILNITTRTANSKLRGQTEALYILTKCNSTRFEFIFTNLVPGSPRLFTSVMAVHRAYETSKMYRDFKLRSALIQNKQLRLLPQEHVYDKINGVWNLSSDQGNLGTFFITNVRIVWHANMNDSFNVSIPYLQIRSIKIRDSKFGLALVIESSQQSGGYVLGFKIDPVEKLQESVKEIASLHKVYSASPIFGVDYEMEEKPQPLEALTVEQIQDDVEIDSDGHTDAFVAYFADGNKQQDREPVFSEELGLAIEKLKDGFTLQGLWEVMS [N251A],with no effect
15,MSVLDALWEDRDVRFDLSAQQMKTRPGEVLIDCLDSIEDTKGNNGDRGRLLVTNLRILWHSLALSRVNVSVGYNCILNITTRTANSKLRGQTEALYILTKCNSTRFEFIFTNLVPGSPRLFTSVMAVHRAYETSKMYRDFKLRSALIQNKQLRLLPQEHVYDKINGVWNLSSDQGNLGTFFITNVRIVWHANMNDSFNVSIPYLQIRSIKIRDSKFGLALVIESSQQSGGYVLGFKIDPVEKLQESVKEIKSLHKVYSASPIFGVDYEMEEKPQPLEALTVEQIQDDVEIDSDGHTDAFVAYFADGNKQQDREPVFSEELGLAIEKLKDGFTLQGLWEVMS [N251K],with no effect
16,MSVLDALWEDRDVRFDLSAQQMKTRPGEVLIDCLDSIEDTKGNNGDRGRLLVTNLRILWHSLALSRVNVSVGYNCILNITTRTANSKLRGQTEALYILTKCNSTRFEFIFTNLVPGSPRLFTSVMAVHRAYETSKMYRDFKLRSALIQNKQLRLLPQEHVYDKINGVWNLSSDQGNLGTFFITNVRIVWHANMNDSFNVSIPYLQIRSIKIRDSKFGLALVIESSQQSGGYVLGFKIDPVEKLQESVKKINSLHKVYSASPIFGVDYEMEEKPQPLEALTVEQIQDDVEIDSDGHTDAFVAYFADGNKQQDREPVFSEELGLAIEKLKDGFTLQGLWEVMS [E249K],with no effect
17,MSVLDALWEDRDVRFDLSAQQMKTRPGEVLIDCLDSIEDTKGNNGDRGRLLVTNLRILWHSLALSRVNVSVGYNCILNITTRTANSKLRGQTEALYILTKCNSTRFEFIFTNLVPGSPRLFTSVMAVHRAYETSKMYRDFKLRSALIQNKQLRLLPQEHVYDKINGVWNLSSDQGNLGTFFITNVRIVWHANMNDSFNVSIPYLQIRSIKIRDSKFGLALVIESSQQSGGYVLGFKIDPVEKLQESVKAINSLHKVYSASPIFGVDYEMEEKPQPLEALTVEQIQDDVEIDSDGHTDAFVAYFADGNKQQDREPVFSEELGLAIEKLKDGFTLQGLWEVMS [E249A],with no effect
